Laboratory results: the nanobody polyreactivity screen of Harvey et al. (2022)

Assay: yeast display, Sf9 membrane polyspecificity reagent, FACS + sequencing; frameworks hold sequencing errors
Outline: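 In a synthetic yeast display library (Saccharomyces cerevisiae BJ5465), nanobody expression was induced with galactose for 36–48 hours. FACS gates were set low and high (top ~1%) using anti-HA fluorescence for expression and streptavidin fluorescence for binding of the Sf9 membrane reagent. Each polyreactivity label is drawn from the gate of origin.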

Sequence	polyreactivity (PSR sort gate)
QVQLVESGGGLVQAGGSLRLSCAASGSIFDIYAMGGYRQAPGKERELVAGITRDDGSTYYADSVKGRFTISRDNAKNTVYLQMNSLNPEDTAVYYCNRPGDYPDYVPGYYYWGQGTQVTVSS	low polyreactivity
QVQLVESGGGLVQAGGSLRLSCAASGSTFSVYAMGWYRQAPGKERELVATITWNGGRTYYADSVKGRFTISRDNAKNTVYLQMNSLKREDTAVYYCASPWLKPGNGIYGGYGYWGQGTQVTVSS	high polyreactivity
QVQLVESGGGLVQAGGSLRLSCAASGSTFVVYAMGWYRQAPGKERELVARITLSDGSTNYADSVKGRFTISRDNAKNTVYLQMNSLKPEDTAVYYCAAEVVPFYYFWFDYWGQGTQVTVSS	low polyreactivity
QVQIVESGGGLVQAGGSLRFSCADSGFTFYSYAIVWYRQAPGKERELVAAISWSGGSTYYADSVKGRFTISRDNAKNTVYLQMNSLKPEDTAVYFCNAPYIGEHYYWGQGTQVTVSS	high polyreactivity
QVQLVESGGGLVQAGGSLRLSCAASGRNFSDYAMGWSRQAPGKERELVATITSGDSTNYADSVKGRFTISRDNAKNTVYLQMNSLKPEDTAVYYCNADRFADYDYWGQGTQVTVSS	low polyreactivity
QDQLVESGGGLVQAGGSLRLSCAASGNIFCYYVMGWYRQAPGKERELVAAITWSGGTTNYADSVKGRFTISRDNAKNTVYLQMNSLKPDDTAVYDCATDRYAYKLYDYWGQGTQVTVSS	low polyreactivity
QFQLVESGGGLVHAGGSLRLSCAASGITYWAYSMGWYRQARGKERELVAAIRFRGRTYYADSVKGRFTISRDNAKNSVYLQMNSLKAEDTAVYYFDADLSYWDDFEYWGQGNQVTVSS	low polyreactivity
QVQLVESGGGLVQAGGSLRLSCAASGSIFKSNGMGWYRQAPGKERELVAAITGSGGTTYYADSVKGRFTISRDNAKNTVYLQMNSLKPEDTAVYYCAADIYWYPTYYYWGQGTQVTVSS	low polyreactivity
QVQLVESGGGLVQAGGSLRLSCAASGSTFSDYTMGWSRQAPGKDRVLVAALNAGGSTNYADSVKGRFTISRDNAKNTVYLQMNSLKPEDTAVYYSNADSSYLANGYWDPDYTPYDSWGQGTQVTVSS	low polyreactivity
PVQLQESGGGLVQAGGSLRLSCAASGNIFDADIMGWYRQAPGKESELVACIADGGSTNYAESVKGRFTISRDNAKNTVYLQMNRLKPEDTAVYYCAAIAYPDIPTCFDYDSDYFFRGQGTQVTVSS	low polyreactivity
QVQLVESGGGLVQAGGSLRLSCAASGSTFTVYAMGWYRQAPGKERELVAAISSSTGSTYYADSVKGRFTISRDNAKNTVYLQMNSLKPEDTAVSYCAADVYHVTTSSYTEFEYWGQGTQVTVSS	low polyreactivity
QVQLEESGGGLVQAGGSLRLSCAASGSIFAPYVMGWYRQATGKERELVAAITESGGRTYYADSVKGRFTISRDNAKNTVYLQMNSLKPEDTAVYYCAARTYDRNRQLRRQWYDYWGQGTQVTVSS	high polyreactivity
QVQLVESGGGLVQAGGSLRLSCAASGSILYANAMGWYRQAPGKERELVAAISARGTSTYYADSVKGRFTISRDNAKNTVYLQMNSLKPEDTAVYYCATGRKNAAQRWGYYYWGQGTQVTVSS	high polyreactivity
QVQLVESGGGLVQAGGSLRLSCAASGFIFPGYAMGWYRQAPGKEREFVAVISRSGVRTYYADSVKGRFTISRDNAKNTVYLQMNSLKPEDTAVYYCAARYYSTDLEYWGQGTQVTVSS	low polyreactivity
QVQLVESGGGLVQAGGSLRLSCAASGIIFWYYAMGWYRQAPGKERELVAAISSGGGTNYADSVKGRFTISRDNAKNTVYLQMNSLKPEDTAVYYCNADDNPVWEYDYWGQGTQVTVSS	low polyreactivity
QVQLQESGGGLVQAGGSLRQSCAASGSIFKVVDMGLYRQAPAKEREFVATIGEGGNTYYADSVKGRFTISRDNAKNTVYLQMNSLKPEDTAVYFYAVVLGSSYSYTYWGQGTQVTVSS	low polyreactivity
QVQLVESGGGLVQAGGSLRLSCAASGFTFDSYAMGWYRQAPGKERELVAAITSDGSTYYADSVKGRFTISRDNAKNTVYLQMNSLKPEDTAVYYCAADGRYFRAVFRLYDYWGQGTQVTVSS	low polyreactivity
QVQLQESGGGLVQAGGSLRLSCAASGSIVVSVTMGWYRKAPGKESELVASIGRGSTTNHADSVKGRFTISRDNAKNIVDLLLNSLKPEDNAVYYCAALESYGKYHGYWGEGTQVTVSS	low polyreactivity
QVHLVESGGGLVQAGGSLRLTCAASGIIFLRYAIGWYRQAPGKERDLVAAITRGGITYYADSVKGRFTISRDNAKNTVYLQMNSLKPEDTAVYYCAATYSGNYSMCRGYDYWGQGTQVTVSS	low polyreactivity
QVQLVESGGGLVQAGGSLRLSCAASGFIFLDYAMGWYRQAPGKERELVAAISSRGARTYYADSVKGRFTISRDNAKNTVYLQMNSLKPEDTAVYYCAARGPLVRYGYWGHGTQVTVSS	high polyreactivity
QVQLVESGGGLDQAGGSLRLSCAASGSIFQDYAMGWYRQAPGKERELVAAITKSGVSTYYADSVKGRFTISRDNAKNTVYLQMNSLKPEDTAVYYCAAPRYVRYHRGYGFDYWGQGTQVTVSS	low polyreactivity

Sequence	polyreactivity (PSR sort gate)
QVQLVESGGGLVQAGGSLRLSCAASGFIFYINAMGWYRQAPGKERELVAAINWRTGSTYYADSVKGRFTISRDNAKNTVYLLMNSLKPEDTAVYYCAAYGYWRRADTEFDYWGQGTQVTVSS	low polyreactivity
QFQLVESGGGLVQAGGSLRLSCAASGRIFARNTMGWYRQAAGKERELVAAITYSGGNTYYADSVKGRFTISRDNAKNTVYLQMNSLKPEDTAVYDCNKASFGRLRKKIMDYWGQGTQVTVSS	high polyreactivity
QVQLVESGGGLVQAGGSLRLSCAASGSIFWGNAMGWYRQAPGKERELVAAIDWSGGSTYYADSVKGRFTISRDNAKNTVYLQMHSLKPEDTAVYYCAASGRYDYDYWGQGTQVTVSS	low polyreactivity
QVQLVESGGGLVQAGGSLRLSCAASGSNFYFYAMGWYRHAPGKERELVAGITSGGITYYADSVKGRFTISRDNAKNTVYLQLNSLKPEDTAVYYCAADFTRRWSKSTPFDSWGQGTQVTVSS	high polyreactivity
QVQLVESGGGLVQAGGSLRLSCAASGFTFPYNAMGWYRQAPVTERELVAAMSRGGGRTYYADSVKGRFTISRDNAKNTVNLQMNSLKPEDTAVYYCAKSPGQDTPYPYGYWGQGTQETVSS	high polyreactivity
QVQLVESGGGLAQAGGSLRLRCAASGRTFPSYAMGWYSQAPGKERELVAAISRSGARTYYADSVKGRFTISRDNAKTTVYLQMNSLKPDDTAVYYCAAVGSTRYEYWGQGSQVTVSS	high polyreactivity
QVQLVESGGGLVQAGGSLRLSCAASGSTFIYYAMGWNRQAPGKERELVDSISRSGGSTYYADSVKGRFTISRDNAKNTVYLQMNSLKPEDTAVYYCARAYRSSFNYWGQGTQVTVSS	high polyreactivity
QVQLVESGGGLVQAGGSLRLSCAASGRTFSTYAMGWYRQAPGKERELVAAIDSGGGSTYYADSVKGRFTISRDNAKNTVYLQMNSLKPEDTAVYYCARDHYAPLARLRYDYWGQGTQVTVSS	low polyreactivity
QVQLVESGGGLVQAGGSLRLSCAASGITFDGYAMGWYRQAPGKETELVAANSWSGGRTYYADSVKGRFTISRDNAKNTVYLQMNSLKPEDTAVYYCGVYRRGVVYLLTSGVDYWGQGTQVTVSS	high polyreactivity
QVQLVESGGGLVQAGGSLRLSCAASGSIFYRYARGWYRQAPGKERELVAAISYNGGRTYYADSVKGRFTISRDNAKNTVYLQMNSLKPEDTAVYYCNAAGRDDAYDYWGQGTQVTVSS	high polyreactivity
QVQLVESGGGLVQAGGSLRLSCVASGSIFRGNAMGWYRQAPGKERELVASISKGGGSTYYADSVKGRFIISRDNAKNTVYLQIHSLKPEDTAVYYCYKDYDRRDFYYWGLGTQVTVSS	low polyreactivity
QVQLVESGGGLVQAGGSLRLSCAASGSIFYGYAMGWYRQAPGKERELVAAITSSGTRTYYADSVKGRFTISRDNAKNTVYLQMNSLKPEDTAVYYCAADGPGYQYDYWGQGTQVTVSS	high polyreactivity
QVQLVESGGGLVQAGGSLRLSCAASGFTLGGNALGWYRQAPGKERELVAAITFSGGSTYYADSVKGRFTISRDNAKNIVYLQMNSLKPVDTAVYYCAKTHGYYYYYTYDYWGQGTQVTVSS	low polyreactivity
QVQLVESGGGLVQAGGSLRLSCAASGSTFLRNVMGWYRQAPGKERELVAAISSRGGSTHYADSVKGRFTISRDNAKNTDYLQMNSLKPEDTAVYYCNAERTAAQYVRAAYDYWGQGTQVTVSS	low polyreactivity
QVQLVESGGGLVQAGGSLRLSCAASGFIFATNTMGWYRQAPGKERELVAASSTYYADSVKGRFTISRDNAKNTVYLQMNSLKPEDTAVYYCNADRDSYIGFDLSESDYWGQGTQVTVSS	low polyreactivity
QDQLVESGGGLVQAGGSLRLSCAASGIIFYDYAMGWYRQAPGKERELVAAITSNGDNTYYADSVKGRFTISRDNAKNTVYLQMNSLKPEDTAGYYCAVDGSFAADFDNYLEEYGYWGQGTQVTVSS	low polyreactivity
QVQLVESGGGLVQAGGSLRLSCAASGLTLAPNAMGWYRQSPGKERELVAAITRSGGDTYYADSVKGRFTISRDTAKNTVYLQMNSLKPEDTAVYYCAADYWFRYGTYTGLTSYYYWGQGTQVTVSS	high polyreactivity
QVQLVESGGGLVHAGGSLRLSCAASVSIFASNAMGWYRQAPGKERELVAAITSSGRTKYADSVKGRFTISRDNAKNTVYLQMNSLNPEDTAVYYCAAVYYTYFGRYDYWGQGTQVTVSS	high polyreactivity
QVQLVESGGGLVQAGGSLRLSCASSGFIFFSYAMGWYRQAPGKERELVASISRSGGTTYYADSVKGRFTISRDNAKNTVYLQMNSLKPEDTAVYYCAARTYSYYSRDYWGQVTQVTVSS	high polyreactivity
QVQLVESGGGLVQAGGSLRLSCAASGFTFNDYAMGWYRQAPGKARELVAAIEWYGGRTYYADSVKGRFTISRDHAKNTDYFHMTSLKPVATAVYYCAAVLYSRLDWYRLDYWGQGTQVTVSS	low polyreactivity
